Assay [1] addresses human Bub1, endogenous (human) (UniProt O43683). In words: cell-based or functional assay.
Assay [2] has as its target rat Bub1, endogenous (rat). In words: cell-based or functional assay.

This passage reports % > 4N cells (endoreduplication), 100 ng/ml nocodazole, mitotic index (phospho-histone H3 positive cells), nocodazole for 15 hours and cells that proceed to anaphase results from US20070274969A1.

human Bub1, endogenous (human), sequence (O43683 whole entry): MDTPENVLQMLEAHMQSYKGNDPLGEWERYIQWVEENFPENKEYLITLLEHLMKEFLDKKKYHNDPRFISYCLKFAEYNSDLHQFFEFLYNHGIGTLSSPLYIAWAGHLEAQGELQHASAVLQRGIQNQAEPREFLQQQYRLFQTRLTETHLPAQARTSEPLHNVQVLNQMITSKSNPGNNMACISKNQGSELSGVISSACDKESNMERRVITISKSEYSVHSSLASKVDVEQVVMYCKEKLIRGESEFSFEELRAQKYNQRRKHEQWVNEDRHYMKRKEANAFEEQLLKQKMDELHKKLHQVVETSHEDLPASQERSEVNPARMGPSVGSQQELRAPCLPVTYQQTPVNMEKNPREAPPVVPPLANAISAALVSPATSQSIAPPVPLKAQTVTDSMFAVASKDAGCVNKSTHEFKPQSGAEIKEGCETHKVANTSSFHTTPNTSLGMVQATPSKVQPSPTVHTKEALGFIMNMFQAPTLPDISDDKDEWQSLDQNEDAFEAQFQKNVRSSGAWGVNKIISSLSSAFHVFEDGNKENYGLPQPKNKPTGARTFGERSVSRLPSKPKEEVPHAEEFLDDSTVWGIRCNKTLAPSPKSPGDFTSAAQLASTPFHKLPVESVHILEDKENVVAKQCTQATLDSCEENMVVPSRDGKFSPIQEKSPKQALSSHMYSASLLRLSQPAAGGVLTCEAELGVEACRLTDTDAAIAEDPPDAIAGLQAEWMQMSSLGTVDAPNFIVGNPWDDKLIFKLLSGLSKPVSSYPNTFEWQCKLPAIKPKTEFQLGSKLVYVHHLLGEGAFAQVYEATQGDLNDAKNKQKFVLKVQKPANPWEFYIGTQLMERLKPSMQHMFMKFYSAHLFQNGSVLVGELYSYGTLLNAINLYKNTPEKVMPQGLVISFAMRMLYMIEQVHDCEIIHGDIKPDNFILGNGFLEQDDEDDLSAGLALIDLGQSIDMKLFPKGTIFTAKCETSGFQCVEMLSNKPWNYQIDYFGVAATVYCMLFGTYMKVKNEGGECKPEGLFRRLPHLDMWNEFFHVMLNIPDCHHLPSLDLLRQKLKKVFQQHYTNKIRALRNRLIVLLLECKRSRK

In assay [1], “SV40 large T antigen, wild-type (from UniProt P03070 1-708)” yielded a % > 4N cells (endoreduplication), 100 ng/ml nocodazole of 45.7% and a mitotic index (phospho-histone H3 positive cells), nocodazole for 15 hours of 14.6%. This substance displayed a cells that proceed to anaphase at 24 ng/ml nocodazole, time-lapse microscopy of immortalized rat embryo fibroblasts in assay [2] of 90%.
